Target: HgdA (All5345), putative nucleoside-diphosphate-sugar epimerase / UDP-galactose 4-epimerase of Anabaena sp. PCC 7120 (Anabaena sp. PCC 7120)
Assay: SEC; Superdex 75 10/300 on an ÄKTA system, Tris buffer (20 mmol/L Tris, 200 mmol/L NaCl, pH 7.5); masses calibrated with standard proteins (Gel Filtration LMW Calibration Kit)

“HgdA (All5345), putative nucleoside-diphosphate-sugar epimerase / UDP-galactose 4-epimerase of Anabaena sp. PCC 7120 (enzyme)” showed a stoichiometry N of 2.
